Experimental data from patent publication US20250376501A1 (JINGYUAN BIOSCIENCES SUZHOU, published 2025).
Values belong to the binder of their own block, whether it stands above or below them.

Legend:
[1] = molecular target: T1, hTSLP recombinant protein (ACROBiosystems, Cat. No. TSP-H52Ha) (human, UniProt Q969D9 29-159); test: competitive ELISA: blocks binding of hIL-7Rα-mFc to hTSLP/TSLPR-Fc complex, anti-mouse Fc HRP
T1 construct: Bought protein; also called hTSLP protein; hTSLP-his; not shown: His tag
Protocol: TSLPR-Fc fusion protein was coated onto a plate at a concentration of 0.5 μg/mL and a volume of 100 μL per well, and incubated at 4° C. overnight. […] Then, goat anti-mouse Fc tag horseradish peroxidase-labeled antibody (1:5000) was added, and the mixture was reacted at room temperature for 1 hour. Then, TMD substrate solution was added, and the absorbance was read at 450 nm. Data processing and graphical analysis were performed using the software Graphpad Prism 6.0.

[2] = molecular target: T1, hTSLP recombinant protein …; test: competitive ELISA: blocks binding of hTSLP/hTSLPR-Fc complex to coated mouse IL-7Rα-his, anti-human Fc HRP
Protocol: Then, goat anti-human Fc tag horseradish peroxidase-labeled antibody (1:10000) was added, and the mixture was reacted at room temperature for 1 hour. Then, TMD substrate solution was added, and the absorbance was read at 450 nm. Data processing and graphical analysis were performed using the software Graphpad Prism 6.0.

[3] = molecular target: T2, hTSLP-mFc recombinant protein (ACROBiosystems, Cat. No. TSP-H5255) (human, UniProt Q969D9 29-159); test: ELISA, hTSLP-mFc coated 50 ng/well, anti-His HRP
T2 construct: Bought protein; also called hTSLP-Fc protein; not shown: mouse Fc tag
Protocol: hTSLP-mFc recombinant protein (ACROBiosystems, Cat. No. TSP-H5255) was coated onto a plate at 50 ng/well and incubated at 4° C. overnight. […] After washing, mouse anti-His tag horseradish peroxidase-labeled antibody (1:5000) (purchased from Beijing Sino Biological, 105327-MM02T-H) was added, and the mixture was reacted at room temperature for 1 hour. After washing, TMD substrate solution was added, and the absorbance was read at 450 nm. Data processing and graphical analysis were performed using the software Graphpad Prism 6.0.

[4] = molecular target: T1, hTSLP recombinant protein …; test: cell-based or functional assay
hTSLP/TSLPR-Fc complex = molecular target: T3, hTSLP/TSLPR-Fc complex (human, UniProt Q9HC73 23-231); test: ELISA, TSLPR-Fc coated, hTSLP added, hIL-7Rα-mFc titrated, anti-mouse Fc HRP
T3 construct: also called hTSLP/hTSLPR-Fc complex; not shown: His tag of the bought hTSLP; Fc tag of the bought protein (detected with anti-human Fc)
Protocol: TSLPR-Fc recombinant protein (purchased from ACROBiosystems, Cat. No. TSR-H525a) was coated onto a plate at 0.1 μg/well and incubated at 4° C. overnight. Subsequently, the plate was washed and added with 0.1 μg/well of hTSLP, and the mixture was reacted at room temperature for 1 hour. […] After washing, goat anti-mouse Fc tag horseradish peroxidase-labeled antibody (purchased from Abcam, ab97040) was added, and the mixture was reacted at room temperature for 1 hour. After washing, substrate solution was added, and the absorbance was read at 450 nm.

T1 sequence (Q969D9 29-159 R127A/R130A limits assumed): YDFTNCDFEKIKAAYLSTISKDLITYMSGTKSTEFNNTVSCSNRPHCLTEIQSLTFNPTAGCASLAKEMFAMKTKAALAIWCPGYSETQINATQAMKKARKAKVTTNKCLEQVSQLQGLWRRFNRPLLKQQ
T2 sequence (Q969D9 29-159 R127A/R130A limits assumed): as above

IC50 [1]: 1.29 nM
IC50 [2]: 1.69 nM
EC50 [3]: 0.029 µg/mL
inhibition of hTSLP-induced reporter gene expression in BaF3-hTSLPR-hIL-7R-STAT5-Luc cells, IC50 [4]: 0.348 nM
inhibition of the proliferation-promoting effect of hTSLP on Ba/F3-TSLPR/IL-7Rα cells (CTG), IC50 [4]: 1.55 nM
B1: 3H10-his recombinant protein (designed binder)
chain: GSHMDLGKKLLEAAWAGRDDEVRILMANGADVNAGDASGDTPLHLAAFSGHLEIVEVLLKHGADVNAEDLLGMTPLHLAAPFGHLEIVEVLLKHGADVNAAARNNGKTPLHLAAFVGHLEIVEVLLKNGADVNAQDKFGKTAFDISIDNGNEDLAEILQKLNG
notes: Expressed in E. coli Rosetta from pet28b, purified on a nickel column; also called 3H10-his fusion protein; 3H10 recombinant protein; not shown: His tag from vector pet28b

EC50 [3]: 0.803 µg/mL
B2: TSLPR-his (Novoprotein Scientific Inc., Cat. No. CW75) (receptor, UniProt Q9HC73 23-231, looked up)
chain: QGGAAEGVQIQIIYFNLETVQVTWNASKYSRTNLTFHYRFNGDEAYDQCTNYLLQEGHTSGCLLDAEQRDDILYFSIRNGTHPVFTASRWMVYYLKPSSPKHVRFSWHQDAVTVTCSDLSYGDLLYEVQYRSPFDTEWQSKQENTCNVTIEGLDAEKCYSFWVRVKAMEDVYGPDTYPSDWSEVTCWQRGEIRDACAETPTPPKPKLSK
notes: Bought protein; not shown: His tag

EC50 (hTSLP/TSLPR-Fc complex): 0.689 µg/mL
B3: hIL-7Rα-mFc (ACROBiosystems, Cat. No. ILA-H5258) (Fc fusion, human, UniProt P16871 21-239, looked up)
chain: ESGYAQNGDLEDAELDDYSFSCYSQLEVNGSQHSLTCAFEDPDVNITNLEFEICGALVEVKCLNFRKLQEIYFIETKKFLLIGKSNICVKVGEKSLTCKKIDLTTIVKPEAPFDLSVVYREGANDFVVTFNTSHLQKKYVKVLMHDVAYRQEKDENKWTHVNLSSTKLTLLQRKLQPAAMYEIKVRSIPDHYFKGFWSEWSPSYYFRTPEINNSSGEMD
notes: Bought protein; not shown: mouse Fc tag
